In experiment [1] the target is full-length wild-type (WT)-VWF (UniProt P04275). The experiment is described as follows: ELISA; modified ELISA; MMRN1 immobilised; WT-VWF (1 µg/ml) added simultaneously with collagen peptide (250 μg/ml, no preincubation with VWF); treatment of VWF not stated for this panel.
For experiment [2], the target named is Biotin-labelled MMRN1 (human) (UniProt Q13201). The experiment is described as follows: SPR; BIAcoreX; biotin-labelled MMRN1 immobilised on streptavidin-coated sensor chips (500–1000 RU); VWF A domains perfused in HEPES-Tyrode running buffer with 0.005 % P-20; two-state conformational model for A1A2A3 and A1, 1:1 Langmuir model for A3; apparent affinity.
Chain of Biotin-labelled MMRN1 (human) (Q13201 20-1228): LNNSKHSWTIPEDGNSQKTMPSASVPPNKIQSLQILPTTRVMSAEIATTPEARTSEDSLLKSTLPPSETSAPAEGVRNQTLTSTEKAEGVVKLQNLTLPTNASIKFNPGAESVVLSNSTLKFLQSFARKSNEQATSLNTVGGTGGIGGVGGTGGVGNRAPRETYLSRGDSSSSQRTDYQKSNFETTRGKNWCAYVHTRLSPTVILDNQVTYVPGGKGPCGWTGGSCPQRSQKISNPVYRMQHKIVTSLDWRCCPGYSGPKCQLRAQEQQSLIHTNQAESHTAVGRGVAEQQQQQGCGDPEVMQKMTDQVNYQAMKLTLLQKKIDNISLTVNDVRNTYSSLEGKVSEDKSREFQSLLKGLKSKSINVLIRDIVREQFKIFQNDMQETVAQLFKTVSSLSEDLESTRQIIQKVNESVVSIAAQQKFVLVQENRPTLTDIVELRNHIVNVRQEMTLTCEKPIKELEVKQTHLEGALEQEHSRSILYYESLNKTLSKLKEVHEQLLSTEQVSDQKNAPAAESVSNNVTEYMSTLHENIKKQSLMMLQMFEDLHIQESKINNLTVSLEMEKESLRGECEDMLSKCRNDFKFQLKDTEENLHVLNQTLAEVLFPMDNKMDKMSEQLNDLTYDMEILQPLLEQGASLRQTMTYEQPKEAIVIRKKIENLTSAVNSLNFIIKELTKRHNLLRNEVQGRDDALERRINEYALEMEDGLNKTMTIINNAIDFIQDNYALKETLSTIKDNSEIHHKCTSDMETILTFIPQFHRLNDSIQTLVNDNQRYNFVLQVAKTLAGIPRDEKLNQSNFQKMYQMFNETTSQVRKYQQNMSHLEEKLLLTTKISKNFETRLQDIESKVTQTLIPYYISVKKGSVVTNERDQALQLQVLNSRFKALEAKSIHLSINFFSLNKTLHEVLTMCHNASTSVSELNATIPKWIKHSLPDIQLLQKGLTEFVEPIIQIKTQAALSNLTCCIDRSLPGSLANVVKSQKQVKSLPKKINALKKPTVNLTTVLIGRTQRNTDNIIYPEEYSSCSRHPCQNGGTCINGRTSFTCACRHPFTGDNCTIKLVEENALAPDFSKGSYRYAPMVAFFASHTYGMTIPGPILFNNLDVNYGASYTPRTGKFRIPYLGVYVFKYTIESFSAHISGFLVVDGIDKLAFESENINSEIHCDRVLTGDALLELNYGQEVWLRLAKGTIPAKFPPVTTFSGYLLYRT

Substance “Triple-helical type III collagen peptide GPRGQOGVMGFO” yielded a percent reduction of WT-VWF binding to immobilised MMRN1 in experiment [1] of 70%.

Take “Monomeric VWF A1 domain (domain or fragment)”: in experiment [2], the Kd worked out at 39.3 nM; the ka1 (two-state model, first step) was 1.2e+06 M⁻¹ s⁻¹; the ka2 (two-state model, second step) was 0.01 s⁻¹; the kd1 (two-state model, first step) was found to be 0.13 s⁻¹. For the same substance, in experiment [2], the kd2 (two-state model, second step) was found to be 0.0032 s⁻¹.

For the origin of these results see article PMC5175582.
